Among the data in a protein production outcome set (Wang et al. 2014) are protein production values, retold here.

The data set can be described thus: label from the status in PepcDB records.
With “MVAEKERVLMDLQDVFEYAFDEIFVTDDKGIVVRVNSTCERHYQIAAKELVGKHVKELQKDGIFYPSATLEVIEKKRPIELVQTTKSGEYLHVRTRPVFDDEGNLRRVISYSRDLTELYQLRQKVEEMDNQLKTYKKELRETYEHEGLIFKSIAMQKIIETIKKVSVVDSTVLVLGETGVGKSRLVRHLHEMSNRKNESFYEINCAALPTNLIESELFGYSGGSFTGANREGKKGLLESAHKGTLFLDEIGEMPLEIQAKLLQVLQEKTFRPIGGRELKKVDVRIVAATNRDLSMMVKQGTFRKDLYYRLNVIPILIPPLRERTEDILPLIYHYLQHFNEKYGRNVKLAPSTLQMFVGYPWEGNNREIENVIERIVITADDIVTIEDLPIAMQESTVEQSGQSLYKMLEEVERNIILKAYKTYGSSYKVAEFLKISQSAATRKIKKLIEEEENIG”, the protein production entry is on record as “failed”. Under “MVALPDWMALAPALSLALASLVLLLADSIDPDSTNTGLLAGISVLGSLLSFGFAGWFITAGTGMADNTGVALFNSQLVVDQMALFFMAIVGSVTTLVVLASYDYITEHSYQAEFFALVLLSATGMSLLSAANSLATAFVALELVSLPSYALVAFLKENKGSVEAGLKYFLIGAVSSAVLAYGISLVYAATGVLRFDGVATAISSGTIQTISEGSIQAQSGDPAVPMAILGVGILMIIGGVAFKTASVPFHFWAPEAYEGAPAPISAFLSSASKAAGFVLAFRAFAVAFPIGDLLAAGGAINWVMAFQILAIATMFIGNFAAATQETVKRMLAYSSVGHAGYVLIGLAAVSGSGEGLSLSLSAGMSHLLVYGFMNTGAFLFIALAEYWGVGRRFEDYNGLGKEAPVACAAMTVFLFSLAGLPIGGGFFSKFYLFSATLNVGAWSLAAALIINSALSLFYYSRVVKAMWIEEPTGSRTIESYPMGLYTAVVGAAIVTVLLVPGFNRVSEIAFQAAQLL” stands “failed”. Next, “MVCCPVNENAAALVVSDGRVMIWELKSAVCNRNSRNSSSGVSPLYSPVSFCGIPVGVLQNKLPDLSLDNMIGQSAIAGEEHPRGSILREVHLKFLLTGLLSGLPAPQFAIRMCPPLTTKNIKMYQPLLAVGTSNGSVLVYHLTSGLLHKELSIHSCEVKGIEWTSLTSFLSFATSTPNNMGLVRNELQLVDLPTGRSIAFRGERGNDESAIEMIKVSHLKQYLAVVFRDKPLELWDVRTCTLLREMSKNFPTITALEWSPSHNLKSLRKKQLATREAMARQTVVSDTELSIVESSVISLLQEAESKSELSQNISARGHFVFTDIDGQVYHLTVEGNSVKDSARIPPDGSMGSITCIAWKGDTLVLGDMDGNLNFWDLKGRVSRGIPTHRSWVRKIRFAPGKGNQKLIAMYNDGAEVWDTKEVQMVSSLRSGRNVTFRILDVDWCTSDKVILASDDGCIRVLEMSMKSACFRMDEQELTEPVWCPYLLVPRASLALKAFLLHQPWNGQYSLDISHVDYPENEEIKNLLQEQLNSLSNDIKKLLLDPEFTLLQRCLLVSRLYGDESELHFWTVAAHYLHSLSQEKSASTTAPKEAAPRDKLSNPLDICYNVLCENAYFQKFQLERVNLQEVKRSTYDHTRKCTDQLLLLGQTDRAVQLLLETSADNQHYYCDSLKACLVTTVTSSGPSQSTIKLVATNMIANGKLAEGVQLLCLIDKAADACRYLQTYGEWNRAAWLAKVRLNPEECADVLRRWVDHLCSPQVNQKSKALLVLLSLGCFFSVAETLHSMRYFDRAALFVEACLKYGAFEVTEDTEKLITAIYADYARSLKNLGFKQGAVLFASKAGAAGKDLLNELESPKEEPIEE”: “failed”; “MVCDKCEKKLSKVIVPDKWKDGARNVTEGGGRKINENKLLSKKNRWSPYSTCTTKCMICKQQVHQDGKYCHTCAYSKGVCAMCGKQVLDTKMYKQSNV”: “failed”; “MVDDNTDQSLSFGRLLFGAGLALQASEDFREMDETVEYAESAGVPVPDVLAPLASGMMLVGGIGVALWRFPRIATGAVVTFLAVVTPTMHDFWNAEPGDRSGERLAFFGNLAMLGAALAYLRKAYR”: “failed”. Under “MVDFKVVLSDPKTGLSYKIDAAGAAAGALLGKKIGTEVDGAPFGMSGYKITITGGSDKTGTPARPDLPGNGRRGLLISDGFGFNATHNGERRRKSQRGNEIAADFVQVNAKITVYGEKPVTEIFAAAAE” stands “failed”; under “MVDHGMFYSSRMSTLSSNGRGDAYTCKKALHLTLNKPNVVKACSDLKKNEHQISRDFAAETKKKTEFLVLKKNNDERSKTGEVTREKKQSALPLKLSKTPRSGTGEIKQTLKKRGLSKSVPETSRLIKLKKQPPVKVSDKPKSCPVLTKNDTDTLELFEIAKKSADFANAKGILASEVETSMCVDTLTLLLEFPISARDMETRKLMVRLEHLTKHKNRKICNSASKLLQCWRESIREQQLRESRKTQG”, “failed”.

“MVDTTILAQALGFISFGLGFSVFYQKNDRHLKILMLIFNLNHLLHFLLLGSMVSALSALLSALRTTTAIFVSSKRVAAVFIVISLVSGFWVAEQWRDLWPIIGTVIGTYSVFCLSGIRMRIGFLLGASCWLTNNILVGSIGGTLLEMTVIVMNLLTIYRLHRQQSESMINQSSY”: the protein production entry is recorded as “failed”. Take “MVEEKVVEKGKERAVEVTKWRRVFDDYRAMSDEILRPDEPKKEKFLEAMRKYLTKQNWPFLLPYKLTLEACTKCGTCAEACTMYLGSGRKKIYSPVYRSDMLRKIYKKHFTLTGKLFGPLIGAKDPTEDDINALAESAYRCTVCRRCALACPFGLDNGLITRETRKIFADLGIVPDELKDNGVENQLKYGNAPKIPYEAFMDILEFIKEDIEDEKGVEVEIPVDKKGAKYLIMNNAGDYLAFTETVQGIVEIMNYVGEDWTLNSPKTGVNDIVNYGLFYSDEDLVRVMKAHVETAKKLDVEYLVVGECGHAYDSIAHFAKDLIPPEERPFKVISWMELLDQFIREGKLKLDKEKNPEPVTFHDSCKWGRTGGIYEEPRRILQAACKDFREMYPNREWNYCCGGGGGFAIMAKDDFLKFRMETYGKMKVQQLKQTGAKIIATICSNCKAQFREMINYYNLDMRFSGVSELVANALVYE”: the protein production result is “failed”. Next, “MVEHIFKRDGHAEKFQPYKIEDAIKKAFESVNVRYDDRIYTNVILAIESENLNSVECIQDRIELEFFKAGYFAVMKSFMNYRFLHKMQREHIYGLSEDTTYVNSTQSVEEYINKEDWRINANANTGYSNAGLVNNLAGKLIANYWLDKVYSKEEGYAHRNGDVHIHDLDCLTGYCAGWSLRSLLNEGFNGVRGRVESRAPKHLREALGQMANFLGILQSEWAGAQAFSSFDTYLAPYVFRDQLEFKEIKKAIKSFVYNLNVPARWGQSPFTNVTIDWTVPADLKDQIPTRNDRHLFEDIQEDALLVQEAQKRGASSLLSMTYKYFQAEMNLINRAFYEVMTEGDKTGQPFTFPIPTVNITEDFDWHGENTDLLFENTAKIGSSYFQNFIGSQYIRNEKGELVENPEAYKPNAVRSMCCRLQLDLRELLKRGGGLFGSAEMTGSIGVVTLNMARLGYRFRGDREGLMAELTKLMDLSKSTLEKKRQAVTELFHRGLYPYTKRYLPGFNNHFSTIGVNGINEMIRNFTNDQDNISSPSGMAFATEILEFMRERIRSYQEETGNLYNLEATPAEGTTYRFAKEDKKRYPQIIQAGMEENVYYTNSSQLPANFTDDPFEALTLQDELQCKYTGGTVLHLYMREKISSAEACRKLVKTVITSYKLPYITITPVFSVCPKHGYLRGEHEYCPLCDEEALLEIEQSQCC”: “failed”; “MVEIFLRTLPFFVIIGLGFWAGRTRFFTPEATAYLTKFVFFFALSAMLFRFAATLPFAEIFNGQLVMGYLWGTAGVYGIASLVAFLRKLDVPTAAVEAQCAAIGNVGFLGLPMLAMLFGEAAIGPVMLVLSVDLIVFSSLIVILINGGRDGRLSLGTLRLIGMGLLKNPMIVSISAGLIWSSLRLPIPAPLNDFLTILGGAATPGALFAIGASLAGRSAERVQIAAWLSLCKLVIHPILVALAVLWVFPVDAFSASVAIAAAALPVAGNVYMLAAHYGVAPQRASAAILLSTAVSILTVPAFIAWVTSA”: “failed”. Next, “MVEQLVSNAAILLAGFYIISLVYKEPITKELSTNKKIVIGIWAGLLGFALMVFGIPISNNVIVDLRHIPIIMVGFYGGPIPAIVSAIIISASRFLLSVNSAAIMAAVVMMLIGIITAIFGKRIEKFKIWGVFILNIIACSFVVINLHLILARESHFWINMTVFVLIALVIGAVSAGLMSNMIKSKQLFQKYEQDSTLDYLTKLSNVRQFDEKINHVMDAGSRQVTLMLIDIDYFKNINDTYGHDAGDAILKQLAIILKRNTSDGSEAFRNGGEEFSIVLLDCPIEKGNFFAEQVRRETEEYDFMIPSGQVVKITISVGVSSSKDGANTSEGLFKSADEALYKAKLTGRNQVCIADGN”: “failed”.
